Measured values taken from US20110312897A1 (published 2011).
Where no end group is shown, it is not given here.

Key:
[1] = biological target: T1, cleaved H3 tail peptide (H3 22-37), methylated at K27 (not fully specified; also: K27 methylated, degree not given here, biotinylated, site not given here); assay: fluorescence anisotropy
T1 peptide: TKAARK(Me)SAPATGGVKK

[2] = biological target: T2, non-cleaved H3 tail peptide (H3 18-37), methylated at K27 (not fully specified; methylated K27 (degree of methylation shown only in FIG. 7C); biotinylated for the pull-down); assay: fluorescence anisotropy
T2 peptide: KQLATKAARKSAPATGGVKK

Kd [1]: 44 µM
Kd [2]: 14.5 µM
B1: chromodomain of mouse CBX7 (other)
chain: MELSAIGEQVFAVESIRKKRVRKGKVEYLVKWKGWPPKYSTWEPEEHILDPRLVMAYEEKEERDRASGYR
